The text below walks through data of patent US20250281586A1 (ELANCO US, published 2025).

Assay [1] has as its target T1, recombinant mouse IL-1RI Fc chimera (R&D 771-MR-100) (mouse, UniProt P13504 20-338).
T1 construct: Coated on ELISA plates at 1 µg/ml; used in place of canine and feline IL-1RI, which were not commercially available; also called IL-1RI receptor; Fc part of the bought chimera not given; not described
T1 sequence (looked up): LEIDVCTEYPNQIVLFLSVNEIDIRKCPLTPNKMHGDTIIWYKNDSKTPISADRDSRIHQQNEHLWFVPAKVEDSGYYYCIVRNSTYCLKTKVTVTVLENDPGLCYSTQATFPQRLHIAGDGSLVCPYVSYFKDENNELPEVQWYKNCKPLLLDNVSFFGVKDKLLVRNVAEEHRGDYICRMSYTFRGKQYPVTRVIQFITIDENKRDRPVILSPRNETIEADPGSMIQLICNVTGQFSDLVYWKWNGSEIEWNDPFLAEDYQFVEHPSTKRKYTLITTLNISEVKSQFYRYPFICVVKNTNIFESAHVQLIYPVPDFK
Briefly: ELISA on coated mouse IL-1RI Fc chimera, detection with biotinylated anti-cIL-1β antibody. For orientation: In an ELISA, binding on a coated surface is turned into a signal by an enzyme label.

For assay [2], the target named is T1, recombinant mouse IL-1RI Fc chimera …. Briefly: ELISA on coated mouse IL-1RI Fc chimera, detection with biotinylated anti-fIL-1β antibody.
Assay [3] has the same target. Briefly: ELISA on coated mouse IL-1RI Fc chimera.

B1: canine IL-1β wild type of SEQ ID NO:29 (ligand)
chain: AAMQSVDCKLQDISHKYLVLSNSYELRALHLNGENVNKQVVFHMSFVHGDESNNKIPVVLGIKQKNLYLSCVMKDGKPTLQLEKVDPKVYPKRKMEKRFVFNKIEIKNTVEFESSQYPNWYISTSQVEGMPVFLGNTRGGQDITDFTMEFSS
notes: also called purified canine IL-1β wild type; wild type canine IL-1β
As to B1, the binding result in assay [1] is “binds”.

B2: commercially available recombinant canine IL-1β protein (R&D 3747-CL-025) (ligand, UniProt Q28292 115-266, looked up)
chain: B1 chain
notes: Bought protein; also called recombinant canine IL-1β purchased from R&D system; commercially available canine IL-1β standard
B2: the binding result in assay [1] was “binds”.

B3: purified feline IL-1β wild type of SEQ ID NO:38 (ligand)
chain: AAIQSQDYTFRDISQKSLVLSGSYELRALHLNGQNMNQQVVFRMSFVHGEENSKKIPVVLCIKKNNLYLSCVMKDGKPTLQLEMLDPKVYPKKKMEKRFVFNKTEIKGNVEFESSQFPNWYISTSQAEEMPVFLGNTKGGQDITDFIMESAS
notes: also called purified wild type feline IL-1β; recombinant feline wild type IL-1β
On to B3, for which the binding result in assay [2] was “binds”.

B4: feline IL-1β-D145K mutein antigen (ligand)
chain: GSAAIQSQDYTFRDISQKSLVLSGSYELRALHLNGQNMNQQVVFRMSFVHGEENSKKIPVVLCIKKNNLYLSCVMKDGKPTLQLEMLDPKVYPKKKMEKRFVFNKTEIKGNVEFESSQFPNWYISTSQAEEMPVFLGNTKGGQDITKFIMESASTSHHHHHHGGCG
notes: also called fIL-1β-D145K antigen
On to B4, for which the binding result in assay [2] was “binds”.

B5: cIL1b-D145K-CMV-Ntt830-E4 VLPs (other)
chain 1: MGQYIKANSKFIGITERRRRPRRGSRSAPSSADANFRVLSQQLSRLNKTLAAGRPTINHPTFVGSERCKPGYTFTSITLKPPKIDRGSGGGSEEEEGGGSGSYYGKRLLLPDSVTEYDKKLVSRIQIRVNPLPKFDSTVWVTVRKVPASSDLSVAAISAMFADGASPVLVYQYAASGVQANNKLLYDLSAMRADIGDMRKYAVLVYSKDDALETDELVLHVDVEHQRIPTSGVLPV
chain 2: MGSAAMQSVDCKLQDISHKYLVLSNSYELRALHLNGENVNKQVVFHMSFVHGDESNNKIPVVLGIKQKNLYLSCVMKDGKPTLQLEKVDPKVYPKRKMEKRFVFNKIEIKNTVEFESSQYPNWYISTSQVEGMPVFLGNTRGGQDITKFTMEFSSTSHHHHHHGGCG
modifications: engineered free cysteine linked to the maleimide of SMPH bound to the VLP; lysine on the VLP surface derivatized with SMPH
notes: also called cIL1b-D145K-CMV-Ntt830-E4 vaccine; cIL-1b-D145K-CMV vaccine
With B5, in assay [3], the binding result is “binds”.

B6: fIL-1b-D145K-CMV-Ntt830-E4 VLPs (other)
chain 1: B5 chain 1
chain 2: B4 chain
modifications: engineered free cysteine linked to the maleimide of SMPH bound to the VLP; lysine on the VLP surface derivatized with SMPH
notes: also called fIL-1b-D145K-CMV-Ntt830-E4 vaccine; fIL1b145K-CMV-Ntt830-E4 vaccine
Regarding B6, the binding result in assay [3] was “binds”.

B7: canine IL-1β-D145K mutein antigen (ligand)
chain: B5 chain 2
notes: expressed in E. coli and purified by IMAC and gel filtration; also called cIL-1β-D145K antigen; cIL1b-D145K-C6Hcg
With B7, the binding result in assay [1] is reported as “binds”.
